{"source": "patent US20240377400A1", "about": "“METHODS FOR TREATING A SUBTYPE OF COLORECTAL CANCER” (Cornell University, priority 2021, published 2024)", "molecules": {"B1": {"name": "PEGPH20: a PEGylated version of human recombinant PH20 hyaluronidase; clinical-grade pegylated hyaluronidase (Halozyme Therapeutics) (protein, UniProt P38567 36-490, looked up)", "Hyaluronidase PH-20": "LNFRAPPVIPNVPFLWAWNAPSEFCLGKFDEPLDMSLFSFIGSPRINATGQGVTIFYVDRLGYYPYIDSITGVTVNGGIPQKISLQDHLDKAKKDITFYMPVDNLGMAVIDWEEWRPTWARNWKPKDVYKNRSIELVQQQNVQLSLTEATEKAKQEFEKAGKDFLVETIKLGKLLRPNHLWGYYLFPDCYNHHYKKPGYNGSCFNVEIKRNDDLSWLWNESTALYPSIYLNTQQSPVAATLYVRNRVREAIRVSKIPDAKSPLPVFAYTRIVFTDQVLKFLSQDELVYTFGETVALGASGIVIWGTLSIMRSMKSCLLLDNYMETILNPYIINVTLAAKMCSQVLCQEQGVCIRKNWNSSDYLHLNPDNFAIQLEKGGKFTVRGKPTLEDLEQFSEKFYCSCYSTLSCKEKADVKDTDAVDVCIADGVCIDAFLKPPMETEEPQIFYNASPSTLS", "modifications": "PEGylated"}}, "key": {"[1]": {"tested_on": "MTO-sgPrkci/sgPrkcz tumors", "assay": "Subcutaneous sgPrkci/Prkcz MTO tumors: PEGPH20 combined with anti-PD-L1", "type": "in vivo, mouse", "method": "FIGS. 13B-13F illustrate Subcutaneous injection of sgPrkci/Prkcz MTOs in WT mice treated twice a week with PEGPH20 (0.0375 mg/kg) and αPD-L1 (5 mg/kg) for 4 weeks (n:Veh=14, PEGPH20-treated=15 and PEGPH20-treated with αPD-L1=15). Experimental design (B); tumor volume (C); tumor weight (D); IHC for HA, αSMA, CD8, FOXP3, S100a8, and CD19 of tumors (E) and quantification (F). Scale bars, 100 μm. Results are shown as mean±SEM *p<0.05, **p<0.01, ***p<0.001, ****p<0.0001.\nFor colonoscopy-guided orthotopic injection in the colon submucosa using mouse tumor organoids (MTOs), a 10 μl organoid suspension of equivalent to 40-50 MTOs admixed with 10% Matrigel (Corning) was directly injected into the colonic submucosa of 7 weeks old C57BL/6 mice. 4 weeks after implantation, tumors were collected and analyzed histologically. Orthotopic tumor sizes were measured by caliper after mice were sacrificed. For xenografts using MTOs, a 100 μl cell suspension of equivalent to 0.5×10^6 cells of sgPrkci/Prkcz or sgC MTOs admixed with 30% Matrigel (Corning) was directly injected subcutaneously into the right flank of 7 weeks old C57BL/6 mice. Tumors were allowed to grow for 14 days, and mice were randomly divided to receive vehicle, n=20, or PEGPH20 (0.0375 mg/kg, 2 days each week) via retro-orbital injection, n=18. Tumors were measured twice a week. Mice were euthanized three weeks after treatment and tumors were analyzed histologically. For the combination therapy of anti-PD-L1 (Clone B7-H1, Bioxcell) antibody and PEGPH20, mice were injected with a dose of 5 mg/kg (body mass) of anti-PD-L1 antibody in combination with PEGPH20 (n=15) twice a week for 4 weeks until they were sacrificed."}, "[2]": {"tested_on": "Prkci^fl/flPrkcz^fl/fl; Villin-Cre tumors", "assay": "scRNAseq, CellphoneDB and multiplex staining of Prkci^fl/flPrkcz^fl/fl; Villin-Cre tumors treated with PEGPH20", "type": "in vivo, mouse", "text": "FIG. 10A illustrates experimental design and workflow of scRNAseq. Tumors from Veh (n=5) and PEGPH20-treated mice (n=3) were dissected and digested into single-cell suspensions for sequencing.\nPrimary antibody dilutions were optimized individually at H220 retrieval using the Leica BondRx Automated IHC stainer and evaluated by a board-certified pathologist for specificity. Multiplexed staining was optimized and then performed using the Automated Opal 7-Color IHC Kit (NEL821001KT) from Akoya Biosciences. A library for spectral separation was generated by staining control tissue with each opal fluor conjugated to CD20. Slides were imaged in the Vectra Polaris Automated Quantitative Pathology Multispectral Imaging System. Exposure times were maximized under the constraint that no pixel saturates the detector (Patel and Rodig, 2020; Patel et al., 2019).\nTumors were minced thoroughly and digested by 0.5 mg/ml Liberase TH (Sigma) for 30 minutes at 37° C. Dead cells were removed by Annexin V (STEMCELL technologies). scRNAseq libraries were generated using the Chromium Single Cell 30 Reagent Kit v2 (10× Genomics). Cells were loaded onto the 10× Chromium Single Cell Platform (10× Genomics) at a concentration of 2,000 cells per μl (Single Cell 3′ library and Gel Bead Kit v.2) as described in the manufacturer's protocol (10× User Guide, Revision B). Generation of gel beads in emulsion (GEMs), barcoding, GEM-RT clean-up, complementary DNA amplification and library construction were all performed as per the manufacturer's protocol. Individual sample quality was checked using a Bioanalyzer Tapestation (Agilent). Qubit was used for library quantification before pooling. The final library pool was sequenced on an Illumina NovaSeq6000 instrument using a S1 flow cell. Average cell recovery for Prkci^f/fPrkcz^f/f; Villin-Cre tumors was […] with a total of 209,907 cells captured at a mean depth of 14,568 read per cell and 895 mean genes per cell.\nFor scRNA-seq, raw sequence reads were quality-checked using FastQC software. The Cell Ranger version 2.1.1 software suite from 10× Genomics (https://support.10× genomics.com/single-cell-gene-expression/software/downloads/latest) was used to process, align, and summarize unique molecular identifier (UMI) counts against the mouse mm10 assembly reference genome analysis set, obtained from the University of California Santa Cruz (UCSC). Raw, unfiltered count matrices were imported into R for further processing. Raw UMI count matrices were filtered using the Seurat v 3.0 R package (Butler et al., 2018) to remove: barcodes with very low (less than 200, empty wells) and very high (more than 3000, probably doublets) total UMI counts; matrices for which a high percentage of UMIs originated from mitochondrial features (more than 12%); and matrices for which fewer than 250 genes were expressed. Subsequently, the data were normalized using the SCTransform function, regressing out the following variables: total number of UMIs per cell and percentage of mitochondrial UMIs. Following normalization, the principal components were computed. The top principal components were identified using the ElbowPlot function and used for the UMAP dimensionality reduction. For clustering, Seurat was used in combination with Harmony software (Korsunsky et al., 2019) to correct the potential effects of technical differences between sequencing batches. The RunHarmonyo, RunUMAP( ), FindNeighbors( ), and FindClusters( ) functions were run for clustering and the percentage of mitochondrial features was considered to be a source of unwanted variation and was regressed out using the Seurat package. […] For the differential gene expression analysis, the FindMarker( ) function with default parameters was run for comparison between populations. The cell groups were annotated based on the marker gene analysis and canonical markers from the literature. […]"}, "[3]": {"conditions": "scRNAseq tumor epithelial cells"}}, "note": "Entries after “also recorded” stand apart in the source; their conditions may differ."}
{"molecule": "B1", "values": [{"measurement": "CD8+ T and B cells in the tumor", "setting": "[1]; IHC CD8, CD19", "result": "sufficient to bring"}, {"measurement": "amount of immunosuppressive myeloid and Tregs", "setting": "[1]; IHC S100a8, FOXP3", "result": "reduce"}, {"measurement": "HA content and intensity of αSMA+ stromal staining", "setting": "[1]; IHC, PEGPH20 0.0375 mg/kg, 4 weeks", "result": "reduced"}, {"measurement": "TGFβ signals provided by myeloid cells and CD4+ Tregs", "setting": "[2]; CellphoneDB", "result": "reduced"}, {"measurement": "communications between TRSC and trophocytes", "setting": "[2]; CellphoneDB", "result": "induced a high number"}, {"measurement": "interaction between Spp1-Ptger4/Cd44 in fibroblasts and Spp1 interactions between telocytes and CD4+ Tregs", "setting": "[2]; CellphoneDB", "result": "eliminates"}, {"measurement": "interactions between TFSCs and telocytes", "setting": "[2]; CellphoneDB", "result": "switching off"}, {"measurement": "secretion of Ccl27a in TRSCs, Ccl28 in TcTAs and residual TFSCs, Ccl25 in TcTAs and TFSCs", "setting": "[2]; CellphoneDB", "result": "increased"}, {"measurement": "secretion of growth signals from telocytes to myeloid cells and CD4+ Tregs", "setting": "[2]; CellphoneDB", "result": "repressed"}, {"measurement": "Rspo1/3 in trophocytes", "setting": "[2]; CellphoneDB, interact with Lgr5 in TRSC", "result": "enriched"}, {"measurement": "presence of TFSCs (ANXA10+ staining)", "setting": "[2]; IHC", "result": "strongly reduced"}, {"measurement": "presence of TRSCs (CLU+ staining)", "setting": "[2]; IHC", "result": "not reduced"}, {"measurement": "ANXA10+/Alcian Blue and ANXA10+/MUC2+ TGCs", "setting": "[2]; IHC and multiplex imaging", "result": "reduced"}, {"measurement": "flow from TcTA to TFSC", "setting": "[2]; RNA velocity trajectory analysis", "result": "total disruption"}, {"measurement": "myeloid cells and CD4+ Tregs in tumors", "setting": "[2]; VECTRA multiplex imaging", "result": "concomitant reduction"}, {"measurement": "B, plasma, and CD8+ T cells infiltrating the tumors", "setting": "[2]; VECTRA multiplex imaging, CD138 staining", "result": "allows CD8+ T cell infiltration; also recorded: strong recruitment"}, {"measurement": "collagens, matrix metalloproteinases, and signatures related to matrix remodeling in the intermediate fibroblasts", "setting": "[2]; differential gene expression", "result": "substantial reduction"}, {"measurement": "vessel normalization signature", "setting": "[2]; endothelial compartment", "result": "increased"}, {"measurement": "angiogenesis, glycolysis, and hypoxia signatures", "setting": "[2]; endothelium compartment", "result": "reduced"}, {"measurement": "signatures related to interferon activation", "setting": "[2]; endothelium compartment", "result": "increased"}, {"measurement": "trophocyte levels (PDGRA−/CD31−/CD34+)", "setting": "[2]; immunofluorescence, mainly at the crypt-bottom positions", "result": "strongly increased"}, {"measurement": "PDGFRA+/NRG1+ fibroblasts at the luminal border", "setting": "[2]; multiplex immunofluorescence", "result": "significantly reduced"}, {"measurement": "expression of several ICIs, including Ctla4, in CD4+ Tregs", "setting": "[2]; scRNAseq", "result": "higher expression"}, {"measurement": "Cd47 immune checkpoint inhibitor expression", "setting": "[2]; scRNAseq / CellphoneDB", "result": "clear increase"}, {"measurement": "signatures corresponding to CD8+ T cells exhaustion, stem-like, and expansion", "setting": "[2]; scRNAseq CD8+ T cells", "result": "enrichment"}, {"measurement": "CD4+ Treg cells", "setting": "[2]; scRNAseq T cells", "result": "reduced"}, {"measurement": "CD8+/Treg ratio", "setting": "[2]; scRNAseq T cells", "result": "increased"}, {"measurement": "proportion of CD8+ Trm and CD8+ Tex cells", "setting": "[2]; scRNAseq T cells", "result": "increased"}, {"measurement": "proportion of tip cells and postcapillary and immature endothelial cells", "setting": "[2]; scRNAseq endothelial compartment", "result": "reduced"}, {"measurement": "proportion of intermediate fibroblast", "setting": "[2]; scRNAseq fibroblasts", "result": "not affected"}, {"measurement": "trophocytes", "setting": "[2]; scRNAseq fibroblasts", "result": "concomitant accumulation"}, {"measurement": "telocyte population", "setting": "[2]; scRNAseq fibroblasts, HA degradation in vivo", "result": "virtually eliminated"}, {"measurement": "proportion of TGCs", "setting": "[2]; scRNAseq goblet cells", "result": "strongly reduced"}, {"measurement": "levels of myeloid cell types (TAN, TAM, IM)", "setting": "[2]; scRNAseq immune cells", "result": "reduced"}, {"measurement": "proportion of T and B cells", "setting": "[2]; scRNAseq immune cells", "result": "increased"}, {"measurement": "proportion of TFSCs", "setting": "[2]; [3]", "result": "clear reduction"}, {"measurement": "proportion of TRSCs in the persistent tumor cell population", "setting": "[2]; [3]", "result": "relative enrichment"}, {"measurement": "proportion of TcTAs", "setting": "[2]; [3]", "result": "limited proportional reduction"}, {"measurement": "vessel disorganization signature", "setting": "[2]; whole endothelial compartment", "result": "reversed"}]}
